Our source for the stoichiometry N values is paper PMC11513116.

Where “and” joins values, the source holds several entries; their conditions need not be identical. Identical values can stand only once.

This assay deals with GCSC1-GFP fusion protein (UBIpro::GCSC1-GFP) (rice (variety Lemont)). As to the kind of experiment: native gel or EMSA. Background: A gel shift assay detects complexes by their altered migration in electrophoresis.

With “GCSC1-GFP fusion protein (UBIpro::GCSC1-GFP) (natural protein)”, the stoichiometry N is 2 and 4.

Broadly, the stoichiometry N is the number of molecules, sites or subunits per partner or assembly.
